± gives the uncertainty stated by the source.
Experiment: amyloid nucleation score (Sup35N fusion, yeast selection) (log enrichment); library NNK3; higher = more nucleation; inactive = no reads after selection
Method in brief: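 Using DiMSum, nucleation scores were taken as the log enrichment of output over input reads, centred on the mode score of non-aggregating sequences. The input and output reads came from Illumina sequencing of plasmid inserts, with sequences under 100 input reads excluded. The yeast were psi-negative, expressed Sup35N fused to peptides of 20 random codons, were induced with 100 μM copper sulfate for 24 hours, and were grown 7 days at 30°C on medium lacking adenine and uracil.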

Substance	amyloid nucleation score
SSSTANYLSIKFSLSLLKYN	0.905 ± 0.14
SSSVRMRCSCISLASNKCAY	1.26 ± 0.12
SSTCTDL	inactive
SSTNSYTSSLVSVSLVGDGA	inactive
SSTRIMNISVSRWSEMDKPD	inactive
SSVEHWPQNVFNRYFLYGVY	inactive
SSVSFQLEVCNQNVLYGIKI	inactive
SSWPN	inactive
SSYAYMRVCAFKVVEMVYWR	inactive
SSYFYHNVILPTHIYNFSVI	2.27 ± 0.08
SSYLGECVKRPDPPRISKTL	inactive
SSYSVVFEQ	inactive
SSYVQFYLGWLGRYCNGSYV	inactive
STAWALAIAAVDRNFDSGWW	0.009 ± 1.1
STGRRPTWATQRLWLWRQQL	-0.091 ± 0.87
STKPFSYYCLRYHRTVTALL	inactive
STLNGGSWVMIYAEDLTS	inactive
STMHELYV	inactive
STNPPNRL	inactive
STRFMVIFDGISSVIGAIYG	inactive
STVKVSLYQNQYPNGFNS	1.66 ± 0.089
STVTDTYRLDTWTTWETDRG	1.98 ± 0.095
STYLGDVSLSFVRVWSVNGS	1.29 ± 0.078
SVARNSHYATLHKELQHVMY	inactive

Substance	amyloid nucleation score
SVDFVIPGSVKSVRFVVELV	inactive
SVDVYRSCEVGKCGGSYSTF	inactive
SVGFVHFVNTGDQKYERRVD	inactive
SVIVKAKASTVGDMQAKCRI	1.1 ± 0.15
SVKLKLGLCFPLYVSGFGLL	inactive
SVLHMWNLRVVLHECYVYHI	inactive
SVLIFTMKDFLGEIFINVPT	1.89 ± 0.092
SVLRYE	inactive
SVLSLLLCYRCSRL	-0.081 ± 0.98
SVLSVV	inactive
SVLVIFVLLSIGSAVKLNYG	inactive
SVNFELYDMITRC	inactive
SVNIMRSLIWH	inactive
SVRLTIEMVTAVFRWGESMR	0.233 ± 0.32
SVSPCSTHFLMSFERYVRGT	inactive
SVSSLRYY	inactive
SVSSRHSAW	inactive
SVSSYAICVEACNYFRSRLV	inactive
SVVEPRRTGTWNSTGVRSQH	inactive
SVVFLLRIAWYWGLWIVLLL	inactive
SVWESHVWHAHTQI	inactive
SVYFFQGTL	1.29 ± 0.084
SWGFHEWSVACQICRYVDRP	inactive
SWGNHYLRGLICYFLLFTDT	inactive

Substance	amyloid nucleation score
SWIVRLWCVMWNNLFVFIRN	inactive
SWLIR	inactive
SWMVQLVNTGVRWLVLANDA	inactive
SWPSASSFDSR	inactive
SWRLYMMA	inactive
SWSGCGLVPSSVSWGYGTCV	-0.47 ± 1.9
SWSTSNVVLNL	1.99 ± 0.072
SWTSVSFRRMLMDSSR	inactive
SWYDHWSLIQDGLKRVNGG	inactive
SYANIWVIHKLDGFMESSLL	inactive
SYGHLQILKVMAIPSYAFPK	inactive
SYGVGWVYTEFGNLLRSFGL	inactive
SYLQQLDLSRDGTVLLKSGI	inactive
SYLYLCRIKVDLPFWSDRLV	inactive
SYMISPAVGKDRDM	inactive
SYMLNSCSWRTK	inactive
SYPGRLYSSGYDCVYSNRSR	inactive
SYQLCACK	inactive
SYRLSYLYPSTHHYLLNCLL	inactive
SYSSDWVLLGGMFFAKY	0.164 ± 0.56
SYSVSCTDGWSIVFMFSHIA	inactive
SYVCWDIFIGQRSNAALSTI	inactive
SYVWYRNGM	inactive
SYWLQSPYDTESMSGFLLQI	inactive

Substance	amyloid nucleation score
SYWYACGKYADNSMER	inactive
SYYFMGHLVFSVQTCIYTQG	0.004 ± 0.26
SYYLRLYEVTWFSRFGFDRS	inactive
SYYSSDKMIVSVGLLKRDAK	inactive
SYYVICGTLMIIVVYFSSYN	1.02 ± 0.093
SYYVNVRYWSITCPIWGLSD	2.29 ± 0.08
TAFTGIRTWHCHCKRSYSLG	inactive
TALWYSYFSTKNDMSLQFAP	-0.673 ± 1.1
TAQTNPGVYYS	inactive
TATYKSYCTL	inactive
TCCSVLLIKVSSNEGD	2.6 ± 0.078
TCHDGHGAGRTVSGVFGGVA	inactive
TCIGNNPMPYFTFCITHNAM	1.03 ± 0.24
TCKVVCRFFHIRACMLGVIL	inactive
TCMHC	inactive
TCRHPIPASLARSAAAVLVW	inactive
TCRMVRGSMMDSAVV	inactive
TCSFECGACTRQVDAVCQLG	inactive
TCTCGVFSD	inactive
TCTGCTSVTL	inactive
TCTYCRFRLSSLVSW	0.366 ± 0.42
TCYFVYTRFFWGDRESKSTF	inactive
TCYITA	inactive
TDIFKSFIRNMNLVWFRVMT	inactive

Substance	amyloid nucleation score
TDKFWLIGDSTTSWIEVVFN	inactive
TDMMMFICE	inactive
TDPFLTCK	inactive
TDSCKGVWIMVGFALFLMWS	inactive
TDTLCDWYLPNRRWIKDNEW	inactive
TDYQNWFNVEINKF	1.48 ± 0.14
TELVLRAVSSLGVLVIFTTS	inactive
TENCEFFTNPPARPYG	inactive
TERVCVCVTFVLW	1.23 ± 0.16
TFCFPWL	inactive
TFCMLCYQNSIFTVYNSEYQ	3.36 ± 0.064
TFDSYPFVKGGISWPNMKYL	inactive
TFEEFESTARLGFHERGDFY	inactive
TFFFTVLG	1.55 ± 0.12
TFFFVVGHSNDEVYSCVKTV	1.12 ± 0.11
TFFWTRCDIVGREWVSNTVN	inactive
TFHSM	inactive
TFLELSIMYGRVTCNSLY	-0.259 ± 0.8
TFLNFSVIGVTSLGTDRAYD	inactive
TFLVALSYFVSLGYGSSQSM	inactive
TFRLILILRTSI	0.898 ± 0.16
TFSVYADETSKRTVFTVMIW	inactive
